The results in this text go back to patent US20220125892A1.

The assay has as its target mannose-6-phosphate receptor on human neuroblastoma cells (SH-SY5Y) (human). The assay can be described thus: cell-based or functional assay.

“OxyGCase (uncapped and demannosylated recombinant human glucocerebrosidase variant produced in Yarrowia lipolytica) (enzyme)” registered a KUPTAKE, net M6PR mediated uptake by SH-SY5Y human neuroblastoma cells (4MUbetaGlc activity in lysates, hyperbolic fit) of 1.9 nM.
